Assay results as given in patent publication US20150330981A1 (published 2015).

Key:
[1] = target: T1, GST-PGC-1β (1-367 aa; GST-P5) (UniProt Q8VHJ7)
T1 sequence: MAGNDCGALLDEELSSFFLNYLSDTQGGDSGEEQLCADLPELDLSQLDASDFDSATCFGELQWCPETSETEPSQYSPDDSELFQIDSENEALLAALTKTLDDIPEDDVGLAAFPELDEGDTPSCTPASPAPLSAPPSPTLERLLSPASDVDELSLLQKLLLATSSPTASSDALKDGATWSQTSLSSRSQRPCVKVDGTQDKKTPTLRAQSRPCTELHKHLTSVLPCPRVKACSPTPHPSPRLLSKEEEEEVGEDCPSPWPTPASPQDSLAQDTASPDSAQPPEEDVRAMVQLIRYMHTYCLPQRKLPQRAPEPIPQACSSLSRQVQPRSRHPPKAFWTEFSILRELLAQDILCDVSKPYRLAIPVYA

[2] = target: T2, in vitro transcribed/translated PGC-1β (FLAG-PGC), Q8VHJ7
T2 chain: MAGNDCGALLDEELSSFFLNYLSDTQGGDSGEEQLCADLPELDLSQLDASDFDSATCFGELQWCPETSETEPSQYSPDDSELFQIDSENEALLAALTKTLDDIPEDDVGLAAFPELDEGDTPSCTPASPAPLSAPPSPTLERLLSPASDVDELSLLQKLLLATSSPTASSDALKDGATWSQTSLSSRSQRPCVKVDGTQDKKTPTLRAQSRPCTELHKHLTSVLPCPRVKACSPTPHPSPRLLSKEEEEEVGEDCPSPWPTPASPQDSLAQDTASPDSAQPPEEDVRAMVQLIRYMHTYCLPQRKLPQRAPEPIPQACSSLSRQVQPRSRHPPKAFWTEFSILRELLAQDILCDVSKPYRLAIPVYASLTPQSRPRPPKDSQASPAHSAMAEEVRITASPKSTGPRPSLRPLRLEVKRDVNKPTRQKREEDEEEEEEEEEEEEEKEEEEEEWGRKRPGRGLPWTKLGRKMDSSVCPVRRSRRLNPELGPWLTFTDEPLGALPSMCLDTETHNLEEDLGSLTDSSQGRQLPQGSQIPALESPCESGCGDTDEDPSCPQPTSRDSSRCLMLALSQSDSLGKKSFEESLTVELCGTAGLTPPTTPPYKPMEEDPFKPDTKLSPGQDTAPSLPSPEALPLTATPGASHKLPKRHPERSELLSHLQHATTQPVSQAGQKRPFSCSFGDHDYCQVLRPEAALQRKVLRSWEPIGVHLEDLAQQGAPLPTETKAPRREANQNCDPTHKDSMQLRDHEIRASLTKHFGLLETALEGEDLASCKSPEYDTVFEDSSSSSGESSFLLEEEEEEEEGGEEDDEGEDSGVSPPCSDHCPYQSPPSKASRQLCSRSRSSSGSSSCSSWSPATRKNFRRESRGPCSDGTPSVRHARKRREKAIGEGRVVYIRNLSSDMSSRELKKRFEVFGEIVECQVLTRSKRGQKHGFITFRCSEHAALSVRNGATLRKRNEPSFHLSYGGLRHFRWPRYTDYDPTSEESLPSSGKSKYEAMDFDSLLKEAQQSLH

[3] = target: T3, HA PGC-1β (full-length mouse PGC-1β with HA tag) (mouse, UniProt Q8VHJ7 1-1014); assay: cell-based or functional assay
T3 sequence (looked up): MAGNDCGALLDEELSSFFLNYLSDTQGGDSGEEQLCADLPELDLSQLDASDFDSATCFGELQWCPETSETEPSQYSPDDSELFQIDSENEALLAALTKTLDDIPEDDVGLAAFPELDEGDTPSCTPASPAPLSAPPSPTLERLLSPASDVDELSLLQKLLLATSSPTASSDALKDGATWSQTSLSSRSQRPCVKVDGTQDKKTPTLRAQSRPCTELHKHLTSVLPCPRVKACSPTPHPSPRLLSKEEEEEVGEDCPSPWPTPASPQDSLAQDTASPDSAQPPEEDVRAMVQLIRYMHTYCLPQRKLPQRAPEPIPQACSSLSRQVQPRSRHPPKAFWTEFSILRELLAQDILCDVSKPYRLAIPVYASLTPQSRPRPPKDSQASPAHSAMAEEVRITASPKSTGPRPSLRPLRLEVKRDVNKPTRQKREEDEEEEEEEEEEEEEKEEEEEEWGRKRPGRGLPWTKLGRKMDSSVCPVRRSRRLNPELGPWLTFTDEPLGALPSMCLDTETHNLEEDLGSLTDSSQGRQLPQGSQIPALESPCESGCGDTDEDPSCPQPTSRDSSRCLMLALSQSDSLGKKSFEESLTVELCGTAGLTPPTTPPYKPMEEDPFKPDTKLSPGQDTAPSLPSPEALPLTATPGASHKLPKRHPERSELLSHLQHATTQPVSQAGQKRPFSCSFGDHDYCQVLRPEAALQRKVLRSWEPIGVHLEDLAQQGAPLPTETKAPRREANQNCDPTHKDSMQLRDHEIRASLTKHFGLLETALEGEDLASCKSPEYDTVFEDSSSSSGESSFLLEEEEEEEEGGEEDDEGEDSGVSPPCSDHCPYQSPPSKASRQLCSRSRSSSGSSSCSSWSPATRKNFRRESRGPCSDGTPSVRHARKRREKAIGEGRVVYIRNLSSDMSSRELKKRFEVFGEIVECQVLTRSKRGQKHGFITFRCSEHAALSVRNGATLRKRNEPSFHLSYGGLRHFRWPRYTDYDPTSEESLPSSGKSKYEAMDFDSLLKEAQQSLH

[4] = target: T4, HA PGC-1β (full-length mouse PGC-1β with HA tag), Q8VHJ7
T4 chain: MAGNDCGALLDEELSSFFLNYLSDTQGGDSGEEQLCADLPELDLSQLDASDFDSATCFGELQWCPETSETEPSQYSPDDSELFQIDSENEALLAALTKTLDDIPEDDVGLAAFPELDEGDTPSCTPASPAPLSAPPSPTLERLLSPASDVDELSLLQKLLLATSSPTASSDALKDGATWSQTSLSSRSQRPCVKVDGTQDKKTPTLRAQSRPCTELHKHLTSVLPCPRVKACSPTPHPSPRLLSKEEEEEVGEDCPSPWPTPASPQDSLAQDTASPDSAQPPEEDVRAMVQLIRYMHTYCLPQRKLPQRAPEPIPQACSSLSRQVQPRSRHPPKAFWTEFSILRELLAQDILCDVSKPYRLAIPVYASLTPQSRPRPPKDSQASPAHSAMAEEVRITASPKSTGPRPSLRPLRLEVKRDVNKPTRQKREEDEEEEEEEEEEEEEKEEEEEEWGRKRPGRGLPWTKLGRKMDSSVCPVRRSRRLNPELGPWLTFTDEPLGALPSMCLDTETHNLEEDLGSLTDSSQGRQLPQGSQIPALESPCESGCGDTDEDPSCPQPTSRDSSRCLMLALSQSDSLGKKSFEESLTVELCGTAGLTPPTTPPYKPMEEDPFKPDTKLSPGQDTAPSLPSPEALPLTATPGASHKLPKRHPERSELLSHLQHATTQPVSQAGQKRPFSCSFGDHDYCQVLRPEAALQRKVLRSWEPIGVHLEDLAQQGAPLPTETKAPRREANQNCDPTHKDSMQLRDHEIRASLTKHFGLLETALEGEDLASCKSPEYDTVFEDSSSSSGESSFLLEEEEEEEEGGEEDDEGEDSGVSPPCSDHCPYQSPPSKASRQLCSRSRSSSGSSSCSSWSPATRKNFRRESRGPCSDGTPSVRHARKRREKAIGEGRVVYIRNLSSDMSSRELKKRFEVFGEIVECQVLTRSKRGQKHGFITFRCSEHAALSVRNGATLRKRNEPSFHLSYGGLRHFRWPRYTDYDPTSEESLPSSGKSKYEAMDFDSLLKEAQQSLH

[5] = target: T3, HA PGC-1β (full-length mouse PGC-1β …); assay: co-immunoprecipitation with anti-FLAG from HEK-293T extract, anti-HA Western blot
Description: Whether synoviolin and PGC-1β actually form a complex in in vivo was investigated. Specifically, a plasmid for expressing PGC-1β with HA tag (HA PGC-1β) and a plasmid for expressing synoviolin with FLAG tag (SYVN1/FLAG) or the modified synoviolin with FLAG tag (SYVN1ΔSyU/FLAG) were transfected in HEK-293T cells. Whole cell extract from the HEK-293T cells transfected with the expression plasmids was prepared to immunoprecipitate using anti-FLAG antibody. Proteins bound to the anti-FLAG antibody were eluted and separated by SDS-PAGE, and Western blot was performed using anti-HA antibody and the anti-FLAG antibody.

MBP-SYVN1 ΔTM-His
in vitro ubiquitination assay (E1-His, UbcH5C, HA-ubiquitin; GST capture, Western blot) [1]: synoviolin (SYVN1) has directly ubiquitinated PGC-1β

B1: modified synoviolin fused to GST (syno(236-338)) (protein)
chain: KVHTFPLFAIRPMYLAMRQFKKAVTDAIMSRRAIRNMNTLYPDATPEELQAMDNVCIICREEMVTGAKRLPCNHIFHTSCLRSWFQRQQTCPTCRMDVLRASL
in vitro ubiquitination assay [2]: polyubiquitinated PGC-1β was detected under the condition with the presence of all of ATP, PK-His-HA-Ub, E1-His, UBE2G2-His, and syno(236-338)

B2: modified synoviolin with FLAG tag (SYVN1ΔSyU/FLAG) (enzyme, UniProt Q86TM6 1-617, looked up)
chain: MFRTAVMMAASLALTGAVVAHAYYLKHQFYPTVVYLTKSSPSMAVLYIQAFVLVFLLGKVMGKVFFGQLRAAEMEHLLERSWYAVTETCLAFTVFRDDFSPRFVALFTLLLFLKCFHWLAEDRVDFMERSPNISWLFHCRIVSLMFLLGILDFLFVSHAYHSILTRGASVQLVFGFEYAILMTMVLTIFIKYVLHSVDLQSENPWDNKAVYMLYTELFTGFIKVLLYMAFMTIMINMNTLYPDATPEELQAMDNVCIICREEMVTGAKRLPCNHIFHTSCLRSWFQRQQTCPTCRMDVLRASLPAQSPPPPEPADQGPPPAPHPPPLLPQPPNFPQGLLPPFPPGMFPLWPPMGPFPPVPPPPSSGEAVAPPSTSAAALSRPSGAATTTAAGTSATAASATASGPGSGSAPEAGPAPGFPFPPPWMGMPLPPPFAFPPMPVPPAGFAGLTPEELRALEGHERQHLEARLQSLRNIHTLLDAAMLQINQYLTVLASLGPPRPATSVNSTEETATTVVAAASSTSIPSSEATTPTPGASPPAPEMERPPAPESVGTEEMPEDGEPDAAELRRRRLQKLESPVAH
notes: Deletion construct expressed in cells; also called synoviolin ΔSyU/FLAG; Synoviolin ASyU/FLAG; not shown: FLAG tag
half-life of PGC-1β in cells (cycloheximide chase, Western blot) [3]: 3.6 h
half-life of PGC-1β (cycloheximide chase, MEF Syno-/-) [4]: SYVN1 ΔSyU has not so promoted degradation of PGC-1β
binding result [5]: no binding
